Measured values reported in PMC4059916 (2014).
Changes are numbered by the printed parent chain. Names and notes keep the numbering of the source.

T1: Rab32 1-225 (Q85L), GTP hydrolysis-defective mutant, GST removed (UniProt Q13637 1-225, Q85L)
T1 sequence: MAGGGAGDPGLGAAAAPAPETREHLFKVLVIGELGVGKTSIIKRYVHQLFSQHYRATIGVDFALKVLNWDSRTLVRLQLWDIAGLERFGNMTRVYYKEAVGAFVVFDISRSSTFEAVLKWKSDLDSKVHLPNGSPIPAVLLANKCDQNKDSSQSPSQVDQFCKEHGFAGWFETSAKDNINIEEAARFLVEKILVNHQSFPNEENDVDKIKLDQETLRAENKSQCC

B1: VARP451-640His6 Q509A/Y550A (domain or fragment)
chain: PSVVTPFSRDDRGHTPLHVAAVCGQASLIDLLVSKGAMVNATDYHGATPLHLACQKGYASVTLLLLHYKASAEVQDNNGNTPLHLACTYGHEDCVKALVAYDVESCRLDIGNEKGDTPLHIAARWGYQGVIETLLQNGASTEIQNRLKETPLKCALNSKILSVMEAYHLSFERRQKSSEAPVQSPQRSVD
B2: VARP451-640His6 (first ankyrin repeat domain, ANKRD1), wild type (domain or fragment)
chain: B1 chain with A59Q, A100Y
B3: Rab32 (Q85L/G89T/N90S/V94L) (protein)
chain: T1 sequence with G89T, N90S, V94L
modifications: Construct limits taken from the parent Rab32 1-225 (PDB 4CYM entity 1); Mg2+ and GTP-analogue state (GppCp or GTPgammaS) presumed

Legend:
Assay in all cases: ITC
[1] = molecular target: T1, Rab32 1-225 (Q85L), GTP …
[2] = molecular target: Rab32(Q85L) mutated at M91/R93 (Switch-II), GST removed, as used in ITC (UniProt Q13637 1-225, Q85L)
[3] = molecular target: B2

B1
Kd [1]: > 300 µM

B2
Kd [2]: > 300 µM

B3
Kd [3]: 13 µM
